Measurements reported in article PMC6528580, “Relative catalytic efficiencies and transcript levels of three D‐ and two L‐lactate dehydrogenases for optically pure D‐lactate production in Sporolactobacillus inulinus” (MicrobiologyOpen, 2018).

Substrate: CC(=O)C(=O)O
Test: purified protein
Format: biochemical, Sporolactobacillus inulinus
Settings: 0.4 mM NADH, pyruvate 0.05-40 mM

B1: D-LDH1 (Sporolactobacillus inulinus CASD) (protein)
chain: MKLFMYGVQAHEKEIIRAWADAHAIDIETTADFLSEKTVDRAKDYDGICIQQPVPLGAAKLYATLKSYGIKQIATRTAGYDMIDLQEAEKNELIVTNVPAYSPYAVAELAVTQAMQLVRHVSQFQQRIAANDFRWDGLMSREIRSMTVGIVGTGRIGATAAQLFKGLGAKIIGFDQYPNDRLKDLIEYRSSLEDVLKEADIVSLHTPLFDSTRHMINARTLKLMKKSAYLINIARGALIDTEALIDALESGEIAGAALDTFENETVINKNLSGQSLNDPLLEKLIAMDQVLLTPHVGFFTETAIRNIVEGALNSVLEVLQTGTSKSRVKPAVTQ
notes: N-terminal His-tag (pET-28a) removed by enterokinase; E. coli BL21(DE3)
pH 6.0, 35 °C
  Km: 0.47 ± 0.04 mM
  Vmax: 62.7 µmol/min/mg
  kcat: 75.8 ± 0.3 s⁻¹
  kcat/Km: 161000 ± 6000 M⁻¹ s⁻¹

B2: D-LDH2 (Sporolactobacillus inulinus CASD) (protein)
chain: MAFKIIAYGVEPYEEHLYSELNKYGFELTLVNDLLTADNGDLAKGHDGVLLFVNCLADRANLEKFNDYGINYVFTRTAGFNHIDLQAAADLGIKVARVPAYSPNAIAELAVYLGTSLLRHTVYTTARTSKLNFTVTETNFSHEVHKIKVGIVGTGHIGCVEAELYKGLGAKLLGYDIFQSDFAKKLVEFKELDELLAESDIVSLHLPYFPGKNENFVGEDFIGKMKDGAILINTARGELVDEAAVAKAIKSGKLEGFGADVLTDEARFFGKDFSDGTEFPDATIKELIELYPKVLITPHVAAMTDVAVSNMISTSYDNFNAAIKGESLGRAEVELPEPAKK
notes: as for B1
pH 7.5, 30 °C
  Km: 1.4 ± 0.09 mM
  Vmax: 38.1 µmol/min/mg
  kcat: 44.7 ± 0.3 s⁻¹
  kcat/Km: 32000 ± 2000 M⁻¹ s⁻¹

B3: D-LDH3 (Sporolactobacillus inulinus CASD) (protein)
chain: MKIIMFSVRDDEEAAIREWEKKTGVQVDINRLELDAETAQLTKGYDGIVIQQRSHISNPAVYETLQKNGLRQLTSRTAGYDMIDLEQASERGLVVTNVPAYSPNSVAELALTQTMRLIRNLPLFDARGAEQDFRWAGLMAREIRSLTVGIIGAGRIGGTVARLFKALGATVIANDIVERVELKDIVTYVSKEELLQAADVVTLHVPLMDSTTQLIDADALALMKNDAVLINASRGPVVDTDALIAALQNKQIAGAALDTLNGEEHFFNQDLCGKELPSEQLKVLRTLPNVLITPHIGFYTNKAVQNMVEISLNDVLAILKTGTSEHQLNKVAVEN
notes: N-terminal His-tag (pET-28a) removed by enterokinase; E. coli BL21(DE3); homodimer hypothesised from identical DLDH744
pH 5.5, 30 °C
  Km: 3.1 ± 0.08 mM
  Vmax: 9.2 µmol/min/mg
  kcat: 10.7 ± 0.2 s⁻¹
  kcat/Km: 3500 ± 200 M⁻¹ s⁻¹

B4: L-LDH1 (Sporolactobacillus inulinus CASD) (protein)
chain: MSETVRRVGVVGIGNVGKAAASAVLHENIADELYISDIDSERAKGEAWDFADSIELTPSRTRVLEVPLEGLAVCDVILVAVTERSQIPTQSRLELLKGTAAITYDIVPKLRKAGFKGTYVIATNPCDIITYLFYKLSGLPKNHVIGTGTALDSMRLRRQLSQVIGDVDPRSINAFMIGEHGDSQIAAWSQATVGGQPLDQFEEDNVDEFGPIDRDQVEDAARHFGWEIHTRKGNTQFGIGNALAFFAKSILNDARVVTAASVIQNGEYGQNDLAIGVPIILGRNGVERIIKFRLSEKEQEGFNGSAELIKGYIKQTLEEHEETTAN
notes: as for B1
pH 7.0, 45 °C
  Km: 4.1 ± 0.12 mM
  Vmax: 5.2 µmol/min/mg
  kcat: 5.9 ± 0.1 s⁻¹
  kcat/Km: 1400 ± 100 M⁻¹ s⁻¹

B5: L-LDH2 (Sporolactobacillus inulinus CASD) (protein)
chain: MRKYAIIGLGHVGAAVAFQLVSRGIADELILIDTNEGLARAEQLDLQDMQGRIDTRTIIKINDYSELADTDILFITAGNILAYKEKQAQGNRWAEFEYTKDIVQDIAPKVKASGFHGVAIDTMNPCDAITQYFQENTGLSRQQVFATGTFLDTARMQKVVSDQFDCDPKNVSGYVYGEHGESQFTAWSTVRVNGLDITELAKERNLNLDDLEEAARRGGWEVYKGKGYTSWAISTCAVKLSQAVLSDAHAACICSCYSEKYGTYVGQPAIIGKNGIEEVLTLPLTTEEEAKFKHSADTIKEKFQTFEKQTN
notes: as for B1
pH 7.0, 40 °C
  Km: 6.8 ± 0.19 mM
  Vmax: 1.9 µmol/min/mg
  kcat: 2.3 ± 0.1 s⁻¹
  kcat/Km: 300 ± 100 M⁻¹ s⁻¹
